Article PMC7703752, “Proteome-level assessment of origin, prevalence and function of leucine-aspartic acid (LD) motifs” (Bioinformatics, 2019)
Where no end group is shown, it is not given here. The star is where a group is joined. FITC = O=C1OC2(c3ccc(O)cc3Oc3cc(O)ccc32)c2ccc(NC(=S)*)cc21; Ahx = NCCCCCC(=O)O

B1: EPB41L5 (Band 4.1-like protein 5) LD motif peptide (peptide)
peptide: ATDELDALLASLTENLID
modifications: also: N-terminal FITC-Ahx only in labelled form
notes: predicted LD motif of human EPB41L5 (Band 4.1-like protein 5); also called E41L5; YMO1; source: synthetic peptide, bought: GenScript
B2: RALGAPA1 LD motif peptide (peptide)
peptide: EDVLDELLQYLGVT
modifications: also: N-terminal FITC-Ahx only in labelled form
notes: predicted LD motif of human RALGAPA1; also called RGPA1; source: synthetic peptide, bought: GenScript
B3: RALGAPA1 LD motif peptide, FITC-Ahx-labelled (peptide)
peptide: {FITC-Ahx}-EDVLDELLQYLGVT
notes: core motif 1680-1689; labelled form, used in direct anisotropy and MST; also called RGPA1; source: synthetic peptide, bought: GenScript
B4: C16orf71 LD motif peptide, FITC-Ahx-labelled (peptide)
peptide: {FITC-Ahx}-EAWDLDDILQSLQGQ
notes: Uncharacterized protein C16orf71, human; core motif 267-276; labelled form, used in direct anisotropy and MST; also called CP071; source: synthetic peptide, bought: GenScript
B5: paxillin LD4 peptide, FITC-Ahx-labelled (peptide)
peptide: {FITC-Ahx}-SASSATRELDELMASLSD
notes: paxillin, human, LD4 motif with flanking residues; also called labelled LD4; FITC-Ahx-labelled LD4; source: synthetic peptide, bought: GenScript
B6: paxillin LD4 peptide, unlabelled (peptide)
peptide: SASSATRELDELMASLSD
notes: paxillin, human, LD4 motif with flanking residues; form without label, used in ACA, DSF, ITC and NMR; source: synthetic peptide, bought: GenScript

What was measured:
[1] = target: T1, FAT domain of human FAK (892–1052) (human, UniProt Q05397 892-1052); test: FP
T1 chain: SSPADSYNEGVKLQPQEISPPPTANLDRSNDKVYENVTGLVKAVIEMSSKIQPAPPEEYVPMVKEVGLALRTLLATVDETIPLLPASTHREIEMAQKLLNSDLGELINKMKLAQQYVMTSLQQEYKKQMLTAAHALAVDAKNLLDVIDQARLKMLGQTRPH

[2] = target: T2, Human α-parvin-CHC (residues 242–372) (human, UniProt Q9NVD7 242-372); test: FP
T2 chain: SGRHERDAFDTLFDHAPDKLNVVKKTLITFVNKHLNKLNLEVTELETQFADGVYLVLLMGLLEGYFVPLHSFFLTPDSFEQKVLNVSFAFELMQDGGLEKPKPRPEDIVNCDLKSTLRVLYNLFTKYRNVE

rat GIT1 (647-770) [3] = target: T3, rat GIT1 (647-770) (rat, UniProt Q9Z272 647-770); test: FP
T3 chain: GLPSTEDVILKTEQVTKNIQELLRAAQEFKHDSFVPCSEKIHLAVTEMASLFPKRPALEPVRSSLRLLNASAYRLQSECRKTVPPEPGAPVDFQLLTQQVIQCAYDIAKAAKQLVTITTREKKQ

[4] = target: T1, FAT domain of human FAK (892–1052); test: ITC
rat GIT1 (647-770) [5] = target: T3, rat GIT1 (647-770); test: ITC
[6] = target: T1, FAT domain of human FAK (892–1052); test: MST
[7] = target: T2, Human α-parvin-CHC (residues 242–372); test: MST
[8] = target: T4, FAT domain of human FAK (892–1052) (human, UniProt Q05397 892-1052); test: fluorescence polarisation + MST + ITC + other: differential scanning fluorimetry; synthesized peptides against recombinant LDBDs in vitro; direct anisotropy with labelled candidate peptides, anisotropy competition of unlabelled peptides against fluorescently labelled known LD motifs, ITC, MST and DSF summed up together; 25°C, 20 mM HEPES pH 7.5, 150 mM NaCl, 2 mM EDTA, 1 mM TCEP, unless stated otherwise; conditions: both partners purified
T4 construct: focal adhesion kinase (FAK), human, FAT domain, residues 892-1052; 15N-labelled for the NMR titrations; Purification and fate of the GST are told only in the Supplementary Material and in the cited work (Arold et al., 2002); also called FAK FAT; four-helix FAT domain from FAK; source: E. coli BL21, expressed as GST-fusion protein
T4 sequence (looked up): T1 chain

[9] = target: T5, Human α-parvin-CHC (residues 242–372) (human, UniProt Q9NVD7 242-372); test: as above; conditions: both partners purified
T5 construct: α-parvin, human, second CH domain (CHC), residues 242-372; Purification and fate of the GST are told only in the Supplementary Material and in the cited work (Lorenz et al., 2008); also called second CH domain of α-parvin; source: E. coli BL21, expressed as GST-fusion protein
T5 sequence (looked up): T2 chain

rat GIT1 (647-770) [10] = target: T3, rat GIT1 (647-770); test: MST
rat GIT1 (647-770) [11] = target: T6, rat GIT1 (647-770) (rat, UniProt Q9Z272 647-770); test: fluorescence polarisation + MST; 'additional DA and MST experiments' with GIT1: GIT1 serially diluted (MST from 630 μM, standard capillaries, 25 °C), FITC-Ahx peptide 0.1 μM; 20 mM HEPES pH 7.5, 150 mM NaCl, 2 mM EDTA, 2 mM DTT, Tween-20; conditions: both partners purified
T6 construct: also called GIT1 FAH; GIT1 FAH domain; source: E. coli BL21, expressed as GST-fusion protein (pGex-4T1), purified as described previously (Schmalzigaug et al., 2007)
T6 sequence (looked up): T3 chain

[12] = target: T7, FAT domain of human FAK (892-1052) (human, UniProt Q05397 892-1052); test: fluorescence polarisation + MST; the 'quantitative' methods, summed up in one sentence for each peptide: direct anisotropy (protein serially diluted, FITC-Ahx peptide 0.1 μM; 20 mM HEPES pH 7.5, 150 mM NaCl, 2 mM EDTA, 2 mM DTT, 0.005% Tween-20; room temperature) and MST (protein diluted from 560 μM FAT or 530 μM α-parvin, labelled peptide 0.1 μM, 0.05% Tween-20, 25 °C); ITC in selected cases; conditions: both partners purified
T7 construct: focal adhesion kinase (FAK), human, FAT domain, residues 892-1052; 15N-labelled (M9 minimal medium) in the NMR titrations; also called FAK FAT; focal adhesion targeting domain; source: E. coli BL21, expressed as GST-fusion protein (pGexP2), purified as described previously (Arold et al., 2002)
T7 sequence (looked up): T1 chain

[13] = target: T8, Human α-parvin-CHC (residues 242-372) (human, UniProt Q9NVD7 242-372); test: as above; conditions: both partners purified
T8 construct: α-parvin, human, C-terminal CH domain, residues 242-372; also called second CH domain of α-parvin; source: E. coli BL21, expressed as GST-fusion protein (pGex 6P1), purified as described previously (Lorenz et al., 2008)
T8 sequence (looked up): T2 chain

[14] = target: T7, FAT domain of human FAK (892-1052); test: as above; conditions: both partners purified; remark: listed apart in the source
[15] = target: T8, Human α-parvin-CHC (residues 242-372); test: as above; conditions: both partners purified; remark: listed apart in the source
[16] = target: T7, FAT domain of human FAK (892-1052); test: fluorescence polarisation; direct anisotropy: FAT or α-parvin titrated, FITC-Ahx-labelled LD4 at 0.1 μM; 20 mM HEPES pH 7.5, 150 mM NaCl, 2 mM EDTA, 2 mM DTT, 0.005% Tween-20; room temperature; conditions: both partners purified
[17] = target: T8, Human α-parvin-CHC (residues 242-372); test: as above; conditions: both partners purified
[18] = target: T8, Human α-parvin-CHC (residues 242-372); test: fluorescence polarisation; anisotropy competition assay (ACA): 10 μM FAT or 25 μM α-parvin with 0.1 μM FITC-Ahx-LD4; unlabelled peptide added at 100 and 250 μM; conditions: both partners purified
[19] = target: T7, FAT domain of human FAK (892-1052); test: differential scanning fluorimetry; 10 μM protein, peptide at 100 and 250 μM, SYPRO Orange; 20 mM HEPES pH 7.5, 150 mM NaCl, 2 mM EDTA, 1 mM TCEP; 20 to 95 °C; conditions: both partners purified

Binder | Kd [1] | Kd [2] | Kd (rat GIT1 (647-770) [3]) | Kd [6] | Kd [7] | binding result [8] | binding result [9] | further results
B1 | 2.7 µM | 28.2 µM | 83.6 µM | 13 µM | 4 µM | binds | binds | Kd [4]: 6 µM; Kd (rat GIT1 (647-770) [5]): 39.3 µM
B2 | 43.6 µM | 49.4 µM | 88 µM | 42.5 µM | 25.7 µM | binds | binds | Kd (rat GIT1 (647-770) [10]): 77.5 µM
B3 | – | – | – | – | – | – | – | Kd (rat GIT1 (647-770) [11]): ~80 µM; binding result [12]: binds; binding result [13]: binds
B4 | – | – | – | – | – | – | – | binding result [14]: binds; binding result [15]: binds
B5 | – | – | – | – | – | – | – | Kd [16]: 10 µM; Kd [17]: 25 µM
B6 | – | – | – | – | – | – | – | binding result [18]: binds; binding result [19]: binds
